Measured values from patent US20150344570A1 (published 2015).
Like-named read-outs stand apart in the source and are kept apart here.

T1: FcgRIIb (human, UniProt P31994 43-217)
T1 construct: extracellular domain; also called FcγRIIb; CD32B
T1 sequence (looked up): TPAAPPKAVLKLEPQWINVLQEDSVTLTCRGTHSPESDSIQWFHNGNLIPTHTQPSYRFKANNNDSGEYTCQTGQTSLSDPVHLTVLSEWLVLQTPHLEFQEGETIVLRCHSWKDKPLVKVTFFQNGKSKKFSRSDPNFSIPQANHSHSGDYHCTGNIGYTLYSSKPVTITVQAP

T2: FcgRIIa R (human, UniProt P12318 34-217)
T2 construct: extracellular domain; also called FcγRIIa R; FcγRIIa type R
T2 sequence (looked up): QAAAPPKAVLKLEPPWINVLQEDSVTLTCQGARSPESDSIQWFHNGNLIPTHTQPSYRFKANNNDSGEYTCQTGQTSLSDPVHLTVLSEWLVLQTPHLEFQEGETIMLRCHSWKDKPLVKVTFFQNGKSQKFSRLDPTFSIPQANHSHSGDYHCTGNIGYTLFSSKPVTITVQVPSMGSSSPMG

T3: FcgRIIa H (human, UniProt P12318 34-217)
T3 construct: extracellular domain; also called FcγRIIa H; FcγRIIa type H
T3 sequence (looked up): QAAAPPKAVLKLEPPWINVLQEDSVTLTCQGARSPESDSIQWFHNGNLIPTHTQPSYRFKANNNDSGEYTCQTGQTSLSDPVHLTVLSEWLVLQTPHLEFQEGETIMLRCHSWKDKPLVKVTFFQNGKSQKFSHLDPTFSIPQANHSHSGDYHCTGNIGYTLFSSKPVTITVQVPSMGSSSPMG

T4: FcgRIIaH (human, UniProt P12318 34-217)
T4 construct: extracellular domain; also called FcγRIIa H; FcgRIIa type H; not shown: His tag attached to the C terminus
T4 sequence (looked up): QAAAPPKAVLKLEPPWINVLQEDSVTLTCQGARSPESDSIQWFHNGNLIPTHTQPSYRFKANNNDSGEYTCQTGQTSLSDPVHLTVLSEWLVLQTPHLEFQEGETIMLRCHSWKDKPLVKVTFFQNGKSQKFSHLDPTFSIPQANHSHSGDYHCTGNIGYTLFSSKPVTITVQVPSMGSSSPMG

T5: FcgRIIb (human, UniProt P31994 43-217)
T5 construct: extracellular domain; also called FcγRIIb; 2b; not shown: His tag attached to the C terminus
T5 sequence (looked up): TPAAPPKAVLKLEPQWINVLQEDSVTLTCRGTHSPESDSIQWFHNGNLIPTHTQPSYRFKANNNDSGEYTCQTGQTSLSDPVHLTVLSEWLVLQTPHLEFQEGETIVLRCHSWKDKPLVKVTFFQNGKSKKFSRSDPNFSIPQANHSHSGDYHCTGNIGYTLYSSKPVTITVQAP

T6: FcgRIIaR (human, UniProt P12318 34-217)
T6 construct: extracellular domain; also called FcγRIIa R; FcgRIIa type R; not shown: His tag attached to the C terminus
T6 sequence (looked up): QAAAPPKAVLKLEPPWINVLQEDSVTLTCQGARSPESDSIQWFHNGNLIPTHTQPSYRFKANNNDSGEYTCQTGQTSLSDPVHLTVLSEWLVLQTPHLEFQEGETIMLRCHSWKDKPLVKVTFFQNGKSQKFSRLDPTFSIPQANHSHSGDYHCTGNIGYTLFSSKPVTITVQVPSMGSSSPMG


Experiments:
[1] = biological target: T1, FcgRIIb; test: SPR (Biacore), antibody captured, FcgR as analyte
Description: (§1) Specifically, H240-Kn120 (SEQ ID NO: 99) resulting from introduction of S239M into H240-Kn067 and H240-Kn126 (SEQ ID NO: 100) resulting from introduction of Y235Q into H240-Kn120 were prepared according to the method described in Reference Example 1. […] Those described above were assayed for the binding to each FcgR according to the method described in Reference Example 8.
(§2) Analysis of interaction between objective antibody and the FcγR was carried out using Biacore T100 (GE Healthcare), Biacore T200, Biacore A100, and Biacore 4000. HBS-EP+ (GE Healthcare) was used as the running buffer, and the measurement temperature was set to 25° C. Chips produced by immobilizing the antigen peptide by the amine coupling method to a Series S sensor Chip CM5 (GE Healthcare), chips produced by allowing preliminarily biotinylated antigen peptides to interact with and immobilize onto a Series S Sensor Chip SA (certified) (GE Healthcare), chips produced by immobilizing Protein L (ACTIGEN, BioVision) to Series S Sencor Chip CM5 (GE Healthcare), or chips produced by immobilizing Protein A/G (Thermo Scientific) to Series S Sencor Chip CM5 (GE Healthcare) were used. Antibodies of interest were captured onto these chips, and allowed to interact to each FcγR diluted with running buffer. To regenerate and repeatedly use the chip, the antibodies captured onto the chip were washed off by reacting 10 mM glycine-HCl, pH 1.5.

[2] = biological target: T7, FcgRIIIa V (human, UniProt P08637 17-208); test: SPR (Biacore), antibody captured, FcgR as analyte
T7 construct: extracellular domain; polymorphic site made after J. Clin. Invest; also called FcγRIIIa V
Description: as §1, §2

[3] = biological target: T8, FcgRIIIa F (human, UniProt P08637 17-208); test: SPR (Biacore), antibody captured, FcgR as analyte
T8 construct: extracellular domain; polymorphic site made after J. Clin. Invest; also called FcγRIIIa F
Description: as §1, §2

[4] = biological target: T2, FcgRIIa R; test: SPR (Biacore), antibody captured, FcgR as analyte
Description: as §1, §2

[5] = biological target: T3, FcgRIIa H; test: SPR (Biacore), antibody captured, FcgR as analyte
Description: as §1, §2

[6] = biological target: T9, FcgRIa (human, UniProt P12314 16-292); test: SPR (Biacore), antibody captured, FcgR as analyte
T9 construct: extracellular domain; also called FcγRIa; FcγRI
Description: as §1, §2

[7] = biological target: T7, FcgRIIIa V; test: SPR (Biacore), antibody captured, FcgR as analyte; remark: listed apart in the source
Description: (§3) Then, H240-Hl136 (SEQ ID NO: 97) resulting from introduction of L234Y/L235Y/G236W/H268D/S298A/A327D into H240-Hl033 and H240-Kn133 (SEQ ID NO: 98) resulting from introduction of D270E/K326D/A330K/K334E into H240-Kn033 were constructed according to the method described in Reference Example 1.
as §2, with “buffer.” for “buffer. To regenerate and repeatedly use the chip, the antibodies captured onto the chip were washed off by reacting 10 mM glycine-HCl, pH 1.5.”

[8] = biological target: T8, FcgRIIIa F; test: SPR (Biacore), antibody captured, FcgR as analyte; remark: listed apart in the source
Description: as §3
as §2, with “buffer.” for “buffer. To regenerate and repeatedly use the chip, the antibodies captured onto the chip were washed off by reacting 10 mM glycine-HCl, pH 1.5.”

[9] = biological target: T2, FcgRIIa R; test: SPR (Biacore), antibody captured, FcgR as analyte; remark: listed apart in the source
Description: as §3
as §2, with “buffer.” for “buffer. To regenerate and repeatedly use the chip, the antibodies captured onto the chip were washed off by reacting 10 mM glycine-HCl, pH 1.5.”

[10] = biological target: T3, FcgRIIa H; test: SPR (Biacore), antibody captured, FcgR as analyte; remark: listed apart in the source
Description: as §3
as §2, with “buffer.” for “buffer. To regenerate and repeatedly use the chip, the antibodies captured onto the chip were washed off by reacting 10 mM glycine-HCl, pH 1.5.”

[11] = biological target: T4, FcgRIIaH; test: SPR (Biacore); KD of H240-Kn033/H240-Hl033/L73-k0 divided by KD of the variant
[12] = biological target: T10, FcgRIIIaV (human, UniProt P08637 17-208); test: as above
T10 construct: extracellular domain; also called FcγRIIIa V; 3aV; not shown: His tag attached to the C terminus

[13] = biological target: T11, FcgRIIIaF (human, UniProt P08637 17-208); test: as above
T11 construct: extracellular domain; also called FcγRIIIa F; 3aF; not shown: His tag attached to the C terminus

[14] = biological target: T5, FcgRIIb; test: as above
[15] = biological target: T6, FcgRIIaR; test: as above

T7 sequence (P08637 17-208 F176V limits assumed): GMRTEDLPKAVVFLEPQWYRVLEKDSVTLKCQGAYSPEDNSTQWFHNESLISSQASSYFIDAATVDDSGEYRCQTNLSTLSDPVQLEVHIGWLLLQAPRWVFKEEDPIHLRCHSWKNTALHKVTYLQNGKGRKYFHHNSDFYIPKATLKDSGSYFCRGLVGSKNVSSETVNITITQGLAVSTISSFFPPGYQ
T8 sequence (P08637 17-208): as the sequence (P08637 17-208 F176V limits assumed) above, with V160F counted along it
T9 sequence (P12314 16-292): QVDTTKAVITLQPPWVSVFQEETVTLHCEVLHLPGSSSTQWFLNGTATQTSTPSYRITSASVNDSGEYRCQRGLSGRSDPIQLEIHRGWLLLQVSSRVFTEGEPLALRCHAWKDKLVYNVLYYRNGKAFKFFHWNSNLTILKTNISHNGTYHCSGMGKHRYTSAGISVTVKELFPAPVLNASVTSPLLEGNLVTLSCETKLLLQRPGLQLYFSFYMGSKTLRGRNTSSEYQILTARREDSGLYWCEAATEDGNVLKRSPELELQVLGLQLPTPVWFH
T10 sequence (P08637 17-208 F176V limits assumed): as the sequence (P08637 17-208 F176V limits assumed) above
T11 sequence (P08637 17-208): as the sequence (P08637 17-208 F176V limits assumed) above, with V160F counted along it

| Kd [1] | Kd [2] | Kd [3] | Kd [4] | Kd [5] | Kd [6] | Kd [7] | Kd [8] | Kd [9] | Kd [10] | fold 2aH [11] | fold 3aV [12] | fold 3aF [13] | fold 2b [14] | fold 2aR [15] | Binder |
| --- | --- | --- | --- | --- | --- | --- | --- | --- | --- | --- | --- | --- | --- | --- | --- |
| 370 nM | 1.6 nM | 7.1 nM | 49 nM | 94 nM | 0.26 nM | 1.6 nM | 7.1 nM | 49 nM | 94 nM |  |  |  |  |  | H240-Kn067/H240-Hl068/L73-k0 (antibody, human IgG1, kappa, Heterodimerized: L234Y/L235Y/G236W/H268D/S298A/A327D in the knob chain, D270E/K326D/A330K/K334E in the hole chain) heavy 1: QDQLVQSGAEVKKPGASVKVSCKASGFNIKDTYIQWVRQAPGQGLEWMGRIDPLRKQTKYREKFEGRVTITADTSTNTAYMELSSLRSEDTAVYYCVRSGREFDYWGQGTLVTVSSASTKGPSVFPLAPSSKSTSGGTAALGCLVKDYFPEPVTVSWNSGALTSGVHTFPAVLQSSGLYSLSSVVTVPSSSLGTQTYICNVNHKPSNTKVDKKVEPKSCDKTHTCPPCPAPEYYWGPSVFLFPPKPKDTLMISRTPEVTCVVVDVSDEDPEVKFNWYVDGVEVHNAKTKPREEQYNATYRVVSVLTVLHQDWLNGKEYKCKVSNKDLPAPIEKTISKAKGQPREPQVCTLPPSRDELTKNQVSLWCLVKGFYPSDIAVEWESNGQPENNYKTTPPVLDSDGSFFLYSKLTVDKSRWQQGNVFSCSVMHEALHNHYTQKSLSLSP heavy 2: QDQLVQSGAEVKKPGASVKVSCKASGFNIKDTYIQWVRQAPGQGLEWMGRIDPLRKQTKYREKFEGRVTITADTSTNTAYMELSSLRSEDTAVYYCVRSGREFDYWGQGTLVTVSSASTKGPSVFPLAPSSKSTSGGTAALGCLVKDYFPEPVTVSWNSGALTSGVHTFPAVLQSSGLYSLSSVVTVPSSSLGTQTYICNVNHKPSNTKVDKKVEPKSCDKTHTCPPCPAPELLGGPSVFLFPPKPKDTLMISRTPEVTCVVVDVSHEEPEVKFNWYVDGVEVHNAKTKPREEQYNSTYRVVSVLTVLHQDWLNGKEYKCKVSNDALPKPIEETISKAKGQPREPQVYTLPPSRCELTKNQVSLSCAVKGFYPSDIAVEWESNGQPENNYKTTPPVLDSDGSFFLVSKLTVDKSRWQQGNVFSCSVMHEALHNHYTQKSLSLSP light: DIQMTQSPSSLSASVGDRVTITCRASQDIHKYIAWYQQKPGQAPRLLIQYTSTLQPGVPSRFSGSGSGTDYTFTISSLQPEDIATYYCLQYEQLRTFGGGTKVEIKRTVAAPSVFIFPPSDEQLKSGTASVVCLLNNFYPREAKVQWKVDNALQSGNSQESVTEQDSKDSTYSLSSTLTLSKADYEKHKVYACEVTHQGLSSPVTKSFNRGEC |
|  |  |  |  |  |  |  |  |  |  | 1 fold | 1 fold | 1 fold | 1 fold | 1 fold | H240-Kn033/H240-Hl033/L73-k0 (antibody, human IgG1, kappa, Anti-epiregulin IgG1 with only knobs-into-holes alterations) heavy 1: not shown heavy 2: not shown light: DIQMTQSPSSLSASVGDRVTITCRASQDIHKYIAWYQQKPGQAPRLLIQYTSTLQPGVPSRFSGSGSGTDYTFTISSLQPEDIATYYCLQYEQLRTFGGGTKVEIKRTVAAPSVFIFPPSDEQLKSGTASVVCLLNNFYPREAKVQWKVDNALQSGNSQESVTEQDSKDSTYSLSSTLTLSKADYEKHKVYACEVTHQGLSSPVTKSFNRGEC |
